The text below walks through data of paper PMC11724288, “Structural and kinetic insights into tRNA promoter engagement by yeast general transcription factor TFIIIC”.

Data set [1] addresses T1, TFIIICΔtail (τ138, τ131, τ95Δtail, τ91, τ60, τ55) (Saccharomyces cerevisiae, UniProt P34111;P33339;P32367;Q06339;Q12308;Q12415 1-1160;1-1025;1-593;1-672;1-588;1-435). In words: filter binding; 150 mM KCl, 4 C, apparent Kd, Hill coefficient 1, N=1; Buffer FB: 20 mM HEPES pH 7.5, 150 mM KCl, 2 mM MgCl2, 5 mM DTT; filter binding 1 h at 4 C; EMSA 20 min RT with 1 ug poly-dI/dC, gel at 4 C; footprint 30 min RT, DNase I 28 C. The conditions noted are these: protein: recombinant; copies: 1;1;1;1;1;1; blunt. (In EMSA bound probe runs differently from free probe, usually more slowly.)

Data set [2] has as its target T1, TFIIICΔtail (τ138, τ131, τ95Δtail, τ91, …). The data set can be described thus: EMSA; not significantly changed versus A/B; 100-900 nM protein; Buffer FB: 20 mM HEPES pH 7.5, 150 mM KCl, 2 mM MgCl2, 5 mM DTT; filter binding 1 h at 4 C; EMSA 20 min RT with 1 ug poly-dI/dC, gel at 4 C; footprint 30 min RT, DNase I 28 C. The conditions noted are these: protein: recombinant; copies: 1;1;1;1;1;1; label: 32P.

B1: 85-bp tRNAHis (dsDNA)
DNA 1: TGAAAAGTCGCCATCTTAGTATAGTGGTTAGTACACATCGTTGTGGCCGATGAAACCCTGGTTCGATTCTAGGAGATGGCATTTT
DNA 2: AAAATGCCATCTCCTAGAATCGAACCAGGGTTTCATCGGCCACAACGATGTGTACTAACCACTATACTAAGATGGCGACTTTTCA
Regarding B1, in data set [1], the Kd is 30 ± 1 nM.

B2: mA/B (EMSA) (dsDNA)
DNA 1: TCCATTGAAAAGTCGCCATCTAACTATTGTCGTTAGTACACATCGTTGTGGCCGATGAAACCCTGGTTCGATTCTAGGAGATGGCATTTT
DNA 2: AAAATGCCATCTCCTAGAATCGAACCAGGGTTTCATCGGCCACAACGATGTGTACTAACGACAATAGTTAGATGGCGACTTTTCAATGGA
Take B2: the binding result in data set [2] is “binds”.
